Source: US20090221008A1 (Human Genome Sciences, published 2009)

Legend:
[1] = biological target: T1, soluble form of Neutrokine-alpha (amino acids 134 to 285 of SEQ ID NO:2) (human, UniProt Q9Y275 134-285); assay: summary of Example 10
T1 construct: also called rNeutrokine-alpha; soluble Neutrokine-alpha

[2] = biological target: T2, membrane-bound form of Neutrokine-alpha (human, UniProt Q9Y275 1-285); assay: summary of Example 10
T2 construct: Endogenous type II membrane protein on THP-1 cells, monocytes and myeloid cell lines; also called Neutrokine-alpha on the surface of THP-1 cells; cell surface Neutrokine-alpha

[3] = biological target: T3, peptide comprising amino acid residues Val-227 to Asn-242 of SEQ ID NO:2 (human); assay: epitope mapping with peptides
T3 peptide: VTLFRCIQNMPETLPN

Measured: binding result

T2 sequence (Q9Y275 whole entry): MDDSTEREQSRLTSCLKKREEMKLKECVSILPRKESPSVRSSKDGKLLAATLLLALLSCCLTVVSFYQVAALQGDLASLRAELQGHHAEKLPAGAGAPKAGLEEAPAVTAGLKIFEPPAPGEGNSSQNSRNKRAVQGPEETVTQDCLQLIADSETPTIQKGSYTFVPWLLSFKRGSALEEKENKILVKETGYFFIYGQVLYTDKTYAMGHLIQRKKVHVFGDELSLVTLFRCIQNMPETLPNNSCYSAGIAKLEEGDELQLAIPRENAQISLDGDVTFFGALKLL
T1 sequence (Q9Y275 134-285): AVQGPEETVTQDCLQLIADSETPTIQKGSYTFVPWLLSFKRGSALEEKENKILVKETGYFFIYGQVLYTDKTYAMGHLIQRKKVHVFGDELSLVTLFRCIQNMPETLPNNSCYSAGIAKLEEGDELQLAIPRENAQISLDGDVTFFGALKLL

B1: 15C10 (antibody, human IgG1, V domains shown)
VH: QVQLQQSGAELARPGASVKMSCRASGYTFTTYTMHWVKQRPGQGLEWIGYIIPRNTYTTFNQKFKNKATLTADKSSNTAYMQLSSLTSEDSAVYYCARHYGGGYWFFDVWGAGTTVTVSS
VL: ELVMTQTPASLAVSLGQRATISCRGSESVDSYGNSFMHWYQQKPGQPPKLLIYRASNLESGIPARFSGSGSRTDFTLTIYPVEADDVATYYCQQSNDDPMYTFGGGTKLEIKR
notes: Murine monoclonal antibody; hybridoma ATCC PTA-1158; A chimeric form with human IgG1/kappa was deposited as ATCC PTA-3794; also called anti-Neutrokine-alpha antibody 15C10
binds: all assays above
